Molecular target: feline FcRn complex (FcRn-α subunit and β-microglobulin), biotin labeled (feline)
Test: SPR, pH 6

Binder | Kd [nM]
feline IgG1a S252N (antibody, part only; not given: variable domains, not shown: another chain or arm of the molecule) constant: ASTTAPSVFPLAPSCGTTSGATVALACLVLGYFPEPVTVSWNSGALTSGVHTFPAVLQASGLYSLSSMVTVPSSRWLSDTFTCNVAHPPSNTKVDKTVRKTDHPPGPKPCDCPKCPPPEMLGGPSIFIFPPKPKDTLNISRTPEVTCLVVDLGPDDSDVQITWFVDNTQVYTAKTSPREEQFNSTYRVVSVLPILHQDWLKGKEFKCKVNSKSLPSPIERTISKAKGQPHEPQVYVLPPAQEELSRNKVSVTCLIKSFHPPDIAVEWEITGQPEPENNYRTTPPQLDSDGTYFVYSKLSVDRSHWQRGNTYTCSVSHEALHSHHTQKSLTQSPGK | 400
feline IgG1a S254D (antibody, part only; not given: Variable domains, not shown: another chain or arm of the molecule) constant: ASTTAPSVFPLAPSCGTTSGATVALACLVLGYFPEPVTVSWNSGALTSGVHTFPAVLQASGLYSLSSMVTVPSSRWLSDTFTCNVAHPPSNTKVDKTVRKTDHPPGPKPCDCPKCPPPEMLGGPSIFIFPPKPKDTLSIDRTPEVTCLVVDLGPDDSDVQITWFVDNTQVYTAKTSPREEQFNSTYRVVSVLPILHQDWLKGKEFKCKVNSKSLPSPIERTISKAKGQPHEPQVYVLPPAQEELSRNKVSVTCLIKSFHPPDIAVEWEITGQPEPENNYRTTPPQLDSDGTYFVYSKLSVDRSHWQRGNTYTCSVSHEALHSHHTQKSLTQSPGK | 474
feline IgG1a S254H (antibody, part only; not given: Variable domains, not shown: another chain or arm of the molecule) constant: ASTTAPSVFPLAPSCGTTSGATVALACLVLGYFPEPVTVSWNSGALTSGVHTFPAVLQASGLYSLSSMVTVPSSRWLSDTFTCNVAHPPSNTKVDKTVRKTDHPPGPKPCDCPKCPPPEMLGGPSIFIFPPKPKDTLSIHRTPEVTCLVVDLGPDDSDVQITWFVDNTQVYTAKTSPREEQFNSTYRVVSVLPILHQDWLKGKEFKCKVNSKSLPSPIERTISKAKGQPHEPQVYVLPPAQEELSRNKVSVTCLIKSFHPPDIAVEWEITGQPEPENNYRTTPPQLDSDGTYFVYSKLSVDRSHWQRGNTYTCSVSHEALHSHHTQKSLTQSPGK | 1850
feline IgG1a S252V (antibody, part only; not given: Variable domains, not shown: another chain or arm of the molecule) constant: ASTTAPSVFPLAPSCGTTSGATVALACLVLGYFPEPVTVSWNSGALTSGVHTFPAVLQASGLYSLSSMVTVPSSRWLSDTFTCNVAHPPSNTKVDKTVRKTDHPPGPKPCDCPKCPPPEMLGGPSIFIFPPKPKDTLVISRTPEVTCLVVDLGPDDSDVQITWFVDNTQVYTAKTSPREEQFNSTYRVVSVLPILHQDWLKGKEFKCKVNSKSLPSPIERTISKAKGQPHEPQVYVLPPAQEELSRNKVSVTCLIKSFHPPDIAVEWEITGQPEPENNYRTTPPQLDSDGTYFVYSKLSVDRSHWQRGNTYTCSVSHEALHSHHTQKSLTQSPGK | 4470
feline IgG1a S254F (antibody, part only; not given: Variable domains, not shown: another chain or arm of the molecule) constant: ASTTAPSVFPLAPSCGTTSGATVALACLVLGYFPEPVTVSWNSGALTSGVHTFPAVLQASGLYSLSSMVTVPSSRWLSDTFTCNVAHPPSNTKVDKTVRKTDHPPGPKPCDCPKCPPPEMLGGPSIFIFPPKPKDTLSIFRTPEVTCLVVDLGPDDSDVQITWFVDNTQVYTAKTSPREEQFNSTYRVVSVLPILHQDWLKGKEFKCKVNSKSLPSPIERTISKAKGQPHEPQVYVLPPAQEELSRNKVSVTCLIKSFHPPDIAVEWEITGQPEPENNYRTTPPQLDSDGTYFVYSKLSVDRSHWQRGNTYTCSVSHEALHSHHTQKSLTQSPGK | 568
feline IgG1a S252Q (antibody, part only; not given: Variable domains, not shown: another chain or arm of the molecule) constant: ASTTAPSVFPLAPSCGTTSGATVALACLVLGYFPEPVTVSWNSGALTSGVHTFPAVLQASGLYSLSSMVTVPSSRWLSDTFTCNVAHPPSNTKVDKTVRKTDHPPGPKPCDCPKCPPPEMLGGPSIFIFPPKPKDTLQISRTPEVTCLVVDLGPDDSDVQITWFVDNTQVYTAKTSPREEQFNSTYRVVSVLPILHQDWLKGKEFKCKVNSKSLPSPIERTISKAKGQPHEPQVYVLPPAQEELSRNKVSVTCLIKSFHPPDIAVEWEITGQPEPENNYRTTPPQLDSDGTYFVYSKLSVDRSHWQRGNTYTCSVSHEALHSHHTQKSLTQSPGK | 192
feline IgG1a S254M (antibody, part only; not given: Variable domains, not shown: another chain or arm of the molecule) constant: ASTTAPSVFPLAPSCGTTSGATVALACLVLGYFPEPVTVSWNSGALTSGVHTFPAVLQASGLYSLSSMVTVPSSRWLSDTFTCNVAHPPSNTKVDKTVRKTDHPPGPKPCDCPKCPPPEMLGGPSIFIFPPKPKDTLSIMRTPEVTCLVVDLGPDDSDVQITWFVDNTQVYTAKTSPREEQFNSTYRVVSVLPILHQDWLKGKEFKCKVNSKSLPSPIERTISKAKGQPHEPQVYVLPPAQEELSRNKVSVTCLIKSFHPPDIAVEWEITGQPEPENNYRTTPPQLDSDGTYFVYSKLSVDRSHWQRGNTYTCSVSHEALHSHHTQKSLTQSPGK | 101
feline IgG1a S252P (antibody, part only; not given: Variable domains, not shown: another chain or arm of the molecule) constant: ASTTAPSVFPLAPSCGTTSGATVALACLVLGYFPEPVTVSWNSGALTSGVHTFPAVLQASGLYSLSSMVTVPSSRWLSDTFTCNVAHPPSNTKVDKTVRKTDHPPGPKPCDCPKCPPPEMLGGPSIFIFPPKPKDTLPISRTPEVTCLVVDLGPDDSDVQITWFVDNTQVYTAKTSPREEQFNSTYRVVSVLPILHQDWLKGKEFKCKVNSKSLPSPIERTISKAKGQPHEPQVYVLPPAQEELSRNKVSVTCLIKSFHPPDIAVEWEITGQPEPENNYRTTPPQLDSDGTYFVYSKLSVDRSHWQRGNTYTCSVSHEALHSHHTQKSLTQSPGK | 7030
feline IgG1a S254G (antibody, part only; not given: Variable domains, not shown: another chain or arm of the molecule) constant: ASTTAPSVFPLAPSCGTTSGATVALACLVLGYFPEPVTVSWNSGALTSGVHTFPAVLQASGLYSLSSMVTVPSSRWLSDTFTCNVAHPPSNTKVDKTVRKTDHPPGPKPCDCPKCPPPEMLGGPSIFIFPPKPKDTLSIGRTPEVTCLVVDLGPDDSDVQITWFVDNTQVYTAKTSPREEQFNSTYRVVSVLPILHQDWLKGKEFKCKVNSKSLPSPIERTISKAKGQPHEPQVYVLPPAQEELSRNKVSVTCLIKSFHPPDIAVEWEITGQPEPENNYRTTPPQLDSDGTYFVYSKLSVDRSHWQRGNTYTCSVSHEALHSHHTQKSLTQSPGK | 64.2
feline IgG1a S252T (antibody, part only; not given: Variable domains, not shown: another chain or arm of the molecule) constant: ASTTAPSVFPLAPSCGTTSGATVALACLVLGYFPEPVTVSWNSGALTSGVHTFPAVLQASGLYSLSSMVTVPSSRWLSDTFTCNVAHPPSNTKVDKTVRKTDHPPGPKPCDCPKCPPPEMLGGPSIFIFPPKPKDTLTISRTPEVTCLVVDLGPDDSDVQITWFVDNTQVYTAKTSPREEQFNSTYRVVSVLPILHQDWLKGKEFKCKVNSKSLPSPIERTISKAKGQPHEPQVYVLPPAQEELSRNKVSVTCLIKSFHPPDIAVEWEITGQPEPENNYRTTPPQLDSDGTYFVYSKLSVDRSHWQRGNTYTCSVSHEALHSHHTQKSLTQSPGK | 1190

The next binders have a lower Kd than those just listed; values first:

Kd [nM] | Binder
53 | feline IgG1a S254A (antibody, part only; not given: Variable domains, not shown: another chain or arm of the molecule) constant: ASTTAPSVFPLAPSCGTTSGATVALACLVLGYFPEPVTVSWNSGALTSGVHTFPAVLQASGLYSLSSMVTVPSSRWLSDTFTCNVAHPPSNTKVDKTVRKTDHPPGPKPCDCPKCPPPEMLGGPSIFIFPPKPKDTLSIARTPEVTCLVVDLGPDDSDVQITWFVDNTQVYTAKTSPREEQFNSTYRVVSVLPILHQDWLKGKEFKCKVNSKSLPSPIERTISKAKGQPHEPQVYVLPPAQEELSRNKVSVTCLIKSFHPPDIAVEWEITGQPEPENNYRTTPPQLDSDGTYFVYSKLSVDRSHWQRGNTYTCSVSHEALHSHHTQKSLTQSPGK
0.711 | feline IgG1a S254E (antibody, part only; not given: Variable domains, not shown: another chain or arm of the molecule) constant: ASTTAPSVFPLAPSCGTTSGATVALACLVLGYFPEPVTVSWNSGALTSGVHTFPAVLQASGLYSLSSMVTVPSSRWLSDTFTCNVAHPPSNTKVDKTVRKTDHPPGPKPCDCPKCPPPEMLGGPSIFIFPPKPKDTLSIERTPEVTCLVVDLGPDDSDVQITWFVDNTQVYTAKTSPREEQFNSTYRVVSVLPILHQDWLKGKEFKCKVNSKSLPSPIERTISKAKGQPHEPQVYVLPPAQEELSRNKVSVTCLIKSFHPPDIAVEWEITGQPEPENNYRTTPPQLDSDGTYFVYSKLSVDRSHWQRGNTYTCSVSHEALHSHHTQKSLTQSPGK
42.7 | feline IgG1a S254L (antibody, part only; not given: variable domains and light chain, not shown: another chain or arm of the molecule) constant: ASTTAPSVFPLAPSCGTTSGATVALACLVLGYFPEPVTVSWNSGALTSGVHTFPAVLQASGLYSLSSMVTVPSSRWLSDTFTCNVAHPPSNTKVDKTVRKTDHPPGPKPCDCPKCPPPEMLGGPSIFIFPPKPKDTLSILRTPEVTCLVVDLGPDDSDVQITWFVDNTQVYTAKTSPREEQFNSTYRVVSVLPILHQDWLKGKEFKCKVNSKSLPSPIERTISKAKGQPHEPQVYVLPPAQEELSRNKVSVTCLIKSFHPPDIAVEWEITGQPEPENNYRTTPPQLDSDGTYFVYSKLSVDRSHWQRGNTYTCSVSHEALHSHHTQKSLTQSPGK
1.02 | feline IgG1a S434H (antibody, part only; not given: variable domains and light chain, not shown: another chain or arm of the molecule; small tags and cut ends) constant: ASTTAPSVFPLAPSCGTTSGATVALACLVLGYFPEPVTVSWNSGALTSGVHTFPAVLQASGLYSLSSMVTVPSSRWLSDTFTCNVAHPPSNTKVDKTVRKTDHPPGPKPCDCPKCPPPEMLGGPSIFIFPPKPKDTLSISRTPEVTCLVVDLGPDDSDVQITWFVDNTQVYTAKTSPREEQFNSTYRVVSVLPILHQDWLKGKEFKCKVNSKSLPSPIERTISKAKGQPHEPQVYVLPPAQEELSRNKVSVTCLIKSFHPPDIAVEWEITGQPEPENNYRTTPPQLDSDGTYFVYSKLSVDRSHWQRGNTYTCSVSHEALHHHHTQKSLTQSPGK
46.5 | feline IgG1a S254K (antibody, part only; not given: Variable domains, not shown: another chain or arm of the molecule) constant: ASTTAPSVFPLAPSCGTTSGATVALACLVLGYFPEPVTVSWNSGALTSGVHTFPAVLQASGLYSLSSMVTVPSSRWLSDTFTCNVAHPPSNTKVDKTVRKTDHPPGPKPCDCPKCPPPEMLGGPSIFIFPPKPKDTLSIKRTPEVTCLVVDLGPDDSDVQITWFVDNTQVYTAKTSPREEQFNSTYRVVSVLPILHQDWLKGKEFKCKVNSKSLPSPIERTISKAKGQPHEPQVYVLPPAQEELSRNKVSVTCLIKSFHPPDIAVEWEITGQPEPENNYRTTPPQLDSDGTYFVYSKLSVDRSHWQRGNTYTCSVSHEALHSHHTQKSLTQSPGK
14.4 | feline IgG1a S434I (antibody, part only; not given: Variable domains, not shown: another chain or arm of the molecule) constant: ASTTAPSVFPLAPSCGTTSGATVALACLVLGYFPEPVTVSWNSGALTSGVHTFPAVLQASGLYSLSSMVTVPSSRWLSDTFTCNVAHPPSNTKVDKTVRKTDHPPGPKPCDCPKCPPPEMLGGPSIFIFPPKPKDTLSISRTPEVTCLVVDLGPDDSDVQITWFVDNTQVYTAKTSPREEQFNSTYRVVSVLPILHQDWLKGKEFKCKVNSKSLPSPIERTISKAKGQPHEPQVYVLPPAQEELSRNKVSVTCLIKSFHPPDIAVEWEITGQPEPENNYRTTPPQLDSDGTYFVYSKLSVDRSHWQRGNTYTCSVSHEALHIHHTQKSLTQSPGK
